Tests used:
[1] = biological target: T1, human wildtype KRas4B 1-169 (C-terminal truncated) (human, UniProt P01116-2 1-169); experiment: BLI; 1:2 bivalent model
[2] = biological target: T1, human wildtype KRas4B 1-169 (C-terminal …); experiment: BLI; 2:1 heterogeneous model, binding type 2 (69-99 %)

B1: GST-Rgl2^RA (Ras association domain of human Rgl2, residues 643-740, fused with GST) (domain or fragment)
chain: GPGASDCRIIRVQMELGEDGSVYKSILVTSQDKAPSVISRVLKKNNRDSAVASEYELVQLLPGERELTIPASANVFYAMDGASHDFLLRQRRRSSTAT
[1]
  Kd: 48.2 µM
[2]
  Kd: 1.62 µM

Reference: PMC10576006 (2023)
